Read-outs that look alike come from different tables or passages of the source.
Tests used:
[1] = biological target: taxol-stabilized microtubules (porcine brain tubulin) (porcine) (UniProt P02550); test: co-sedimentation
[2] = biological target: taxol-stabilized microtubules (porcine brain tubulin) (porcine) (UniProt P02550); test: co-sedimentation; remark: listed apart in the source

ICR2-His6 (from UniProt Q9ZQC5 56-583) (natural protein)
stoichiometry N (mol per mol of tubulin) [1]: 0.85

B1: ICR1-His6 (natural protein)
chain: MPRPRVSELSQRQAPRLRSSSSTSDSNHSNRLITTDQSFKPGVDRKSPRSGGPNSDPLGQKKLGGRISDLESQLGQAQEELRLLKEQLANAEAVKKQAQDELHKKSKKPNPLARVEESATEAERIDRDEIPGDVQKETDVFEVPVEKIAVEEEELRSGNDEAEKLVAKEDEIKMLKARLYDMEKEHESLGKENESLKNQLSDSASEISNVKANEDEMVSKVSRIGEELEESRAKTAHLKEKLESMEEAKDALEAEMKKLRVQTEQWRKAADAAAAVLSGEFEMNGRDRSGSTEKYYAGGFFDPSAGFMDPPGMADDYDDGLGSGKRKSSGMKMFGELWRKKGQK
stoichiometry N (mol per mol of tubulin) [1]: 0.4 | stoichiometry N (mol per mol of tubulin) [2]: 0.35

— article doi:10.1101/2021.01.08.425872
